Reference: article PMC8776730 (Nature Communications, 2022)

Tests used:
[1] = tested on: orthotopic pancreatic tumor (MIA PaCa-2); assay: Signal in small orthotopic tumor area versus healthy spleen area; assay type: in vivo; conditions: orthotopic pancreatic tumor mice, i.v. 16 mg/kg, 12 h
Method: To evaluate the imaging property of BIVA probe, the orthotopic pancreatic tumor mice model was built. After intravenous injected M1 and M2 molecules with a dose of 16 mg/kg for 12 h, the mice were sacrificed. […] Then, all the important organs were dissected for ex vivo imaging. […] Upon the individual differences, we validated 6 mice under surgery to induce orthotopic tumor in pancreatic head. […] As known, the FAP-α was a membrane located protein, overexpressed on tumor associate fibroblast cell and pancreatic cell surface.

MIA PaCa-2 tumor [2] = assay: In vivo photoacoustic imaging; set-up: species or system mice; conditions: 12 h after i.v. injection, 16 mg/kg
Method: The MIA PaCa-2 tumor-bearing mice were constructed for in vivo photoacoustic imaging of M1. After intravenously injected with M1 (16 mg/kg) through tail vein, the PA images of mice were acquired with MOST (mode: MOST invision 128) at 12 h post injection.
Supplementary Fig. 22∣ 3D reconstruction PA images of tumor-bearing mice injected with M1 (16 mg/kg) through tail
vein.PA images of mice were acquired with MOST (mode: MOST 128) at 12 h post injection.
(1 picture or pasted object on this page, not shown here)

[3] = set-up: species or system mice; conditions: mouse, in vivo, iv, 16 mg/kg
Text: The acute toxicity evaluation of M1 to mice were verified by blood biochemistry, hemograms, and histological analysis. The representative biomarkers of liver function included alanine aminotransferase (ALT), alkaline phosphatase (ALP), aspartate aminotransferase (AST), total protein (TP), and albumin concentration (ALB). […] In addition, the hematological assessment results including creatinine (CREA), white blood cells (WBC), red blood cells (RBC), hematocrit (HCT), mean corpuscular volume […], mean corpuscular hemoglobin […], mean corpuscular hemoglobin concentration (MCHC), red cell volume distribution width-coefficient of variation (RDW-CV), platelet (PLT)and mean platelet volume (MPV) were carried out (Fig. 8b). All the above indicators in PBS group and M1 group appeared normal, which was basically consistent with the normal range reported in the literature. Then the mice from PBS group and M1 group were sacrificed for the further histological section analysis of the significant organs. After Hematoxylin and Eosin (H&E) staining, the slices of heart, liver, spleen, lung, kidney, and pancreas were compared and evaluated (Fig. 8c).
Fig. 8 Acute toxicity evaluation. a Liver function indicators: alanine aminotransferase (ALT), alkaline phosphatase (ALP), aspartate aminotransferase (AST), total protein (TP) and albumin concentration (ALB). […] Staining: H&E; Injection dose of M1. (i.v. administration): 16 mg/kg; Administration time: 24 h. Scale bar 200 μm.
The female Balb/c nude mice (6–8 weeks, n = 3) were sacrificed for blood and major organs collection after treated with M1 at a dose of 16 mg/kg on the 24 h. The histology evaluation of major organs was performed by Google biotechnology (Wuhan) Co. LTD. The blood biochemistry and haematology analyses were carried out by Vital River Laboratory Animal Technology Co. Ltd.

MIA PaCa-2 tumor [4] = conditions: mouse, in vivo, 16 mg/kg
Method: In order to reduce systemic error and individual difference, we constructed the subcutaneous pancreatic cancer model in mice for quantitatively calculating of the metabolic data.
All the animal experiments were performed in accordance with the Guide for the Care and Use of Laboratory Animals approved by the Committee for Animal Research of the National Center for Nanoscience and Technology. The MIA PaCa-2 tumor-bearing mice were intravenously injected with ICG, M1 and M2 (16 mg/kg), respectively for in vivo fluorescence imaging with in vivo spectrum imaging system. Finally, mice were sacrificed to collect the major organs and tumors for ex vivo fluorescence imaging.

For mPEG-GPAKLVFFGC(IR783)GRGD [M1], which “fluorescence signal on tumor relative to surrounding spleen tissue (signal-to-background)” value [1] is on record?
The value was “over 9 folds”.

And the “accumulation in tumor by photoacoustic imaging” value (MIA PaCa-2 tumor [2])?
The value was “more accumulation in tumor than that of M2”.

What about the “hematological assessment (CREA, WBC, RBC, HCT, MCV, MCH, MCHC, RDW-CV, PLT, MPV)” value [3] of the same substance?
Its value is “normal”.

What about the “hepatic toxicity (ALT, ALP, AST, TP, ALB)” value [3] of the same substance?
Its value is “no obvious hepatic toxicity”.

What about the “organ damage in H&E slices of heart, liver, spleen, lung, kidney, pancreas” value [3] of the same substance?
Its value is “no noticeable organ damage and tissue injury”.

And the “AUC 0-120 h in tumor tissue relative to M2” value (MIA PaCa-2 tumor [4])?
The value was 3.6 times.

What about the “reduction of tumor fluorescence signal between 12 h and 120 h” value (MIA PaCa-2 tumor [4]) of the same substance?
The value was 27.6%.

And the “time to peak of tumor signal” value (MIA PaCa-2 tumor [4])?
The value was roughly 12 h.

And the “retention in tumor lasted” value (MIA PaCa-2 tumor [4]; iv)?
Its value is “up to 96 h”.
